These results are taken from patent publication US20140087995A1 (published 2014).

Numbered stars: 1 amine (or outer) side, 2 acyl side, 3 side chain; on linkers, the order of the positions; unused ones are H or OH. Bridge positions count the residues as written; N and C are the ends. Side chains are listed from the residue outwards. Ends that are not written are not given here. * marks the point of attachment. C20 diacid = O=C(O)CCCCCCCCCCCCCCCCCCC(=O)*; γGlu = O=C(O)[C@H](CCC(=O)[*:2])N[*:1]

Assay [1] has as its target T1, rat amylin receptor (rat calcitonin receptor + rat RAMP 3) (rat, UniProt P32214 25-516; Q9JJ73 23-147).
T1 construct: whole, on cells; Membranes prepared from transiently transfected BHK tk'ts 13 cells; also called rAmylin-R; rat amylin 3(a) receptor
T1 sequence (looked up) 1: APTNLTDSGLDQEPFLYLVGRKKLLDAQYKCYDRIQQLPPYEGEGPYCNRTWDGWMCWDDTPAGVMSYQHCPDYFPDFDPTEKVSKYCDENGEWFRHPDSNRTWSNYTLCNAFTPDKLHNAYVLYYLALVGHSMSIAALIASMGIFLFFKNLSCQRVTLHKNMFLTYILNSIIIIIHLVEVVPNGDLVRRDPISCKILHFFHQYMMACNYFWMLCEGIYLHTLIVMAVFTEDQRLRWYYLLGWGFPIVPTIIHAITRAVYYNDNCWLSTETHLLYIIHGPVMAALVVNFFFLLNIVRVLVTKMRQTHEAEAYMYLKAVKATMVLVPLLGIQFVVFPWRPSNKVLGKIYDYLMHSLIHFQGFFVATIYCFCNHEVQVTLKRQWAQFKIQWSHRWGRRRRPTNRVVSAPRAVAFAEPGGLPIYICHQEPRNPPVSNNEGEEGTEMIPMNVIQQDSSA
T1 sequence (looked up) 2: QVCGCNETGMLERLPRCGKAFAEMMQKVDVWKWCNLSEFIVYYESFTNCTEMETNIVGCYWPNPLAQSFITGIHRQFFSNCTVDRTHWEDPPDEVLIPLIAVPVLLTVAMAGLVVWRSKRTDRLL
The assay can be described thus: SPA competition vs 125I-rat amylin, membranes (Assay VI).

The target in assay [2] is T2, rat calcitonin receptor (rat, UniProt P32214 25-516).
T2 construct: whole, on cells; Membranes prepared from transiently transfected BHK tk'ts 13 cells; also called rCTR; rat calcitonin (a) receptor
T2 sequence (looked up): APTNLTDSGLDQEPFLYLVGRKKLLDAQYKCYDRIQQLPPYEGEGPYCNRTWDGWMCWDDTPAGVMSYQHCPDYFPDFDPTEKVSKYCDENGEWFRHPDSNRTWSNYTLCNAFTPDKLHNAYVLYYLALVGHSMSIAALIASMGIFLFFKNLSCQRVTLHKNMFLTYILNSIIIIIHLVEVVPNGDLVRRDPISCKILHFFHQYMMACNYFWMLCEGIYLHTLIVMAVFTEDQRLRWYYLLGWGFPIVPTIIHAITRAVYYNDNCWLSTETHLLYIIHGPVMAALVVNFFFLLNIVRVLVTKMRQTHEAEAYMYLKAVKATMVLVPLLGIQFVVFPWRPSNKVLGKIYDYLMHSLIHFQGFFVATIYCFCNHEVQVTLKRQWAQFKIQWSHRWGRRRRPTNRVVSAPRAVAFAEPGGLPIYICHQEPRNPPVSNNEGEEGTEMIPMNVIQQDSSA
In words: SPA competition vs 125I-calcitonin, membranes (Assay VIII).

In assay [3] the target is T2, rat calcitonin receptor. The assay can be described thus: ratio of IC50 on rat calcitonin receptor to IC50 on rat amylin receptor.
In assay [4] the target is T3, human calcitonin receptor (human, UniProt P30988 25-474).
T3 construct: whole, on cells; Membranes from stably transfected BHK cells; also called hCTR; hCT
T3 sequence (looked up): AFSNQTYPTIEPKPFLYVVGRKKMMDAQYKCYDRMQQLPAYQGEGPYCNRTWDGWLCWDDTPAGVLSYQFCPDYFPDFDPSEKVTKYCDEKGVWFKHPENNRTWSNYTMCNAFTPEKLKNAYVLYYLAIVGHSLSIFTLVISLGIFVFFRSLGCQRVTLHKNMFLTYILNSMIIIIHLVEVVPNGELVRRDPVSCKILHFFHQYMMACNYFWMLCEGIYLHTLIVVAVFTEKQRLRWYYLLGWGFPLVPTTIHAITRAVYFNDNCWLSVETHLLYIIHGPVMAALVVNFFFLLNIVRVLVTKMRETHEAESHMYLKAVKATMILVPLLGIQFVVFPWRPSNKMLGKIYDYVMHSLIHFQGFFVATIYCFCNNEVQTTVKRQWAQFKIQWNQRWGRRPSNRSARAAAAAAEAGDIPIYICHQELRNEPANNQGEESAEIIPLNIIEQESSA
The assay can be described thus: ratio of IC50 on human calcitonin receptor to IC50 on human amylin receptor. The method, boiled down:
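Competition binding by SPA uses membrane preparations (35 ng/μL final) in pH 7.4 Hepes buffer with 1 mM CaCl2 and 5 mM MgCl₂. Incubation lasts 120 min at 25° C, and IC₅₀ comes from one-site fitting.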

For assay [5], the target named is T4, human calcitonin receptor (human, UniProt P30988 25-474).
T4 construct: whole, on cells; Assay used cell membranes of the transfected BHK cells; also called hCTR; hCT
T4 sequence (looked up): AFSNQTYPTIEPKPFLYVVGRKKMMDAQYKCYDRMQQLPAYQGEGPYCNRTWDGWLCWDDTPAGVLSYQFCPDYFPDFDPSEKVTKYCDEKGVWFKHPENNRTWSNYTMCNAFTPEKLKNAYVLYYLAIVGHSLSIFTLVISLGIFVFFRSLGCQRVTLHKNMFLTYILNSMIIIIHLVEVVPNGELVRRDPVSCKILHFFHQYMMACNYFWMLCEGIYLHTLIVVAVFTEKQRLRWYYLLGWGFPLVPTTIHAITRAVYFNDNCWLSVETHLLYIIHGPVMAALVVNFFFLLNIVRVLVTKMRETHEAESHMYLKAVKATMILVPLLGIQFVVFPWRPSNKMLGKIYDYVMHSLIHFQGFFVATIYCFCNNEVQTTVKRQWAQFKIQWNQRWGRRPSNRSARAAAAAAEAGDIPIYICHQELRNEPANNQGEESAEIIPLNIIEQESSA
The assay can be described thus: SPA radioligand competition (125I-calcitonin), membranes of BHK cells with human calcitonin receptor. The essentials:
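BHK hCTR membranes 35 ng/μL + SPA beads 0.05 mg/well; buffer 50 mM Hepes pH 7.4, 1 mM CaCl2, 5 mM MgCl₂, 0.1% OA, 0.02% Tween20. 120 min, 25° C., shaking. Scintillation count; IC50 by one-site binding competition.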

In assay [6] the target is T4, human calcitonin receptor. In words: ratio IC50 hCTR / IC50 hAmylin-R of the two SPA competition assays; reference: human amylin receptor. On the procedure:
The resulting pellet was resuspended, homogenized and centrifuged (20.000 rpm, 15 min) in a buffer containing 20 mM Na-HEPES and 0.1 mM EDTA (pH 7.4, buffer 2). The resulting pellet was resuspended in buffer 2 and protein concentration was measured (BCA protein Assay, Pierce). The homogenate was kept cold during the whole procedure. The membranes were kept at −80° C. until use. The assay was performed in a 384 well Optiplate (PerkinElmer) in a total volume of 40 ul. Membranes were mixed with SPA beads. Final concentration of membranes 35 ng/μL final and SPA beads was 0.05 mg/well. Test-compounds were dissolved in DMSO and further diluted in assay buffer (50 mM Hepes, pH 7.4, 1 mM CaCl2, 5 mM MgCl₂, 0.1% OA and 0.02% Tween20). […] The final mixture was incubated with shaking at 400 rpm for 120 min at 25° C. prior to centrifugation (1500 rpm, 10 min). Samples were analyzed on TopCounter™ (Packard). The IC₅₀ was calculated using (one site binding competition analysis) GraphPad Prism5 as a measure of receptor affinity.
Membranes were prepared in the following way; the cells were rinsed with PBS and incubated with Versene for approximately 5 min before harvesting. The cells were flushed with PBS and the cell-suspension was centrifuged for 5 min at 1000 rpm. Cells were homogenized (Ultrathurrax) in a buffer containing 20 mM Na-HEPES and 10 mM EDTA (pH 7.4) and centrifuged at 20.000 rpm for 15 min. The resulting pellet was resuspended, homogenized and centrifuged (20.000 rpm, 15 min) in a buffer containing 20 mM Na-HEPES and 0.1 mM EDTA (pH 7.4, buffer 2). The resulting pellet was resuspended in buffer 2 and protein concentration was measured (BCA protein Assay, Pierce). The homogenate was kept cold during the whole procedure. The membranes were kept at −80° C. until use. Assay was performed in a 384 well Optiplate (PerkinElmer) in a total volume of 40 ul. Membranes were mixed with SPA beads.

B1: N^ε1-[(4S)-4-carboxy-4-(19-carboxynonadecanoylamino)butanoyl]-[Glu14,Arg17,Pro21,Pro27,Pro34,Glu35]-h-amylin (peptide)
peptide: K([γGlu-C20 diacid])CNTATCATQRLAEFLRHSSPNFGAIPSSTNVGPETY-NH2
modifications: disulfide 2-7; N-terminus assumed
SMILES: CC[C@H](C)[C@H](NC(=O)[C@H](C)NC(=O)CNC(=O)[C@H](Cc1ccccc1)NC(=O)[C@H](CC(N)=O)NC(=O)[C@@H]1CCCN1C(=O)[C@H](CO)NC(=O)[C@H](CO)NC(=O)[C@H](Cc1c[nH]cn1)NC(=O)[C@H](CCCNC(=N)N)NC(=O)[C@H](CC(C)C)NC(=O)[C@H](Cc1ccccc1)NC(=O)[C@H](CCC(=O)O)NC(=O)[C@H](C)NC(=O)[C@H](CC(C)C)NC(=O)[C@H](CCCNC(=N)N)NC(=O)[C@H](CCC(N)=O)NC(=O)[C@@H](NC(=O)[C@H](C)NC(=O)[C@@H]1CSSC[C@H](NC(=O)[C@@H](N)CCCCNC(=O)CC[C@H](NC(=O)CCCCCCCCCCCCCCCCCCC(=O)O)C(=O)O)C(=O)N[C@@H](CC(N)=O)C(=O)N[C@@H]([C@@H](C)O)C(=O)N[C@@H](C)C(=O)N[C@@H]([C@@H](C)O)C(=O)N1)[C@@H](C)O)C(=O)N1CCC[C@H]1C(=O)N[C@@H](CO)C(=O)N[C@@H](CO)C(=O)N[C@H](C(=O)N[C@@H](CC(N)=O)C(=O)N[C@H](C(=O)NCC(=O)N1CCC[C@H]1C(=O)N[C@@H](CCC(=O)O)C(=O)N[C@H](C(=O)N[C@@H](Cc1ccc(O)cc1)C(N)=O)[C@@H](C)O)C(C)C)[C@@H](C)O
As for B1, the concentration for half-maximal inhibition (IC50) in assay [1] turned out to be 0.164 nM; with rat calcitonin receptor [2], 10.4 nM. Besides, in the assay with rat calcitonin receptor [3], the “Ratio rCT/rAmylin binding” value stood at 63.2. In addition, in assay [4], the “Ratio hCT/hAmylin binding” value worked out at 13.3.

B2: N^α1-[2-[2-[2-[[2-[2-[2-[[(4S)-4-carboxy-4-(19-carboxynonadecanoylamino)butanoyl]amino]ethoxy]ethoxy]acetyl]amino]ethoxy]ethoxy]acetyl]-[Glu14,Arg17,Pro21,Pro27 … (peptide)
peptide: KCNTATCATQRLAEFLRHSSPNFGAIPSSTNVGSNTY
modifications: C20 diacid-gGlu-2xOEG on the alpha amino group of the N-terminal residue (Lys1); disulfide Cys2-Cys7; C-terminal amide
notes: Synthetic analogue; also called compound 19
B2: the IC50 in assay [5] came to 20.4 nM. In addition, in assay [6], the “Ratio hCT/hAmylin binding” value worked out at 36.7.

B3: N^α1-[(4S)-4-carboxy-4-(19-carboxynonadecanoylamino)butanoyl]-[Arg17,Pro21,Pro27,Pro34,Glu35]-h-amylin (peptide)
peptide: {C20 diacid-γGlu}-KCNTATCATQRLANFLRHSSPNFGAIPSSTNVGPETY-NH2
modifications: disulfide 2-7
SMILES: CC[C@H](C)[C@H](NC(=O)[C@H](C)NC(=O)CNC(=O)[C@H](Cc1ccccc1)NC(=O)[C@H](CC(N)=O)NC(=O)[C@@H]1CCCN1C(=O)[C@H](CO)NC(=O)[C@H](CO)NC(=O)[C@H](Cc1c[nH]cn1)NC(=O)[C@H](CCCNC(=N)N)NC(=O)[C@H](CC(C)C)NC(=O)[C@H](Cc1ccccc1)NC(=O)[C@H](CC(N)=O)NC(=O)[C@H](C)NC(=O)[C@H](CC(C)C)NC(=O)[C@H](CCCNC(=N)N)NC(=O)[C@H](CCC(N)=O)NC(=O)[C@@H](NC(=O)[C@H](C)NC(=O)[C@@H]1CSSC[C@H](NC(=O)[C@H](CCCCN)NC(=O)CC[C@H](NC(=O)CCCCCCCCCCCCCCCCCCC(=O)O)C(=O)O)C(=O)N[C@@H](CC(N)=O)C(=O)N[C@@H]([C@@H](C)O)C(=O)N[C@@H](C)C(=O)N[C@@H]([C@@H](C)O)C(=O)N1)[C@@H](C)O)C(=O)N1CCC[C@H]1C(=O)N[C@@H](CO)C(=O)N[C@@H](CO)C(=O)N[C@H](C(=O)N[C@@H](CC(N)=O)C(=O)N[C@H](C(=O)NCC(=O)N1CCC[C@H]1C(=O)N[C@@H](CCC(=O)O)C(=O)N[C@H](C(=O)N[C@@H](Cc1ccc(O)cc1)C(N)=O)[C@@H](C)O)C(C)C)[C@@H](C)O
notes: Synthetic analogue; also called compound 29
B3: the half-maximal inhibitory concentration (IC50) in assay [5] amounted to 8.01 nM. In addition, the “Ratio hCT/hAmylin binding” value in assay [6] was 13.9.
